Molecular target: T1, recombinant STAT3 (immobilized, static adsorption assay) (UniProt P40763 1-770)
T1 construct: STAT3, called 'recombinant STAT3' in the legend and 'immobilized STAT3 peptide' in the results; also called immobilized STAT3; STAT3 (powder)
Test: static adsorption equilibrium assay; immobilized STAT3 (85 nmol g^-1 wet gel) in 20 mL PBS with 2-20 µM C16 or scramble, stirred 12 h; free peptide by absorbance at 240 nm; Langmuir isotherm
Conditions: both partners purified

T1 sequence (P40763 whole entry): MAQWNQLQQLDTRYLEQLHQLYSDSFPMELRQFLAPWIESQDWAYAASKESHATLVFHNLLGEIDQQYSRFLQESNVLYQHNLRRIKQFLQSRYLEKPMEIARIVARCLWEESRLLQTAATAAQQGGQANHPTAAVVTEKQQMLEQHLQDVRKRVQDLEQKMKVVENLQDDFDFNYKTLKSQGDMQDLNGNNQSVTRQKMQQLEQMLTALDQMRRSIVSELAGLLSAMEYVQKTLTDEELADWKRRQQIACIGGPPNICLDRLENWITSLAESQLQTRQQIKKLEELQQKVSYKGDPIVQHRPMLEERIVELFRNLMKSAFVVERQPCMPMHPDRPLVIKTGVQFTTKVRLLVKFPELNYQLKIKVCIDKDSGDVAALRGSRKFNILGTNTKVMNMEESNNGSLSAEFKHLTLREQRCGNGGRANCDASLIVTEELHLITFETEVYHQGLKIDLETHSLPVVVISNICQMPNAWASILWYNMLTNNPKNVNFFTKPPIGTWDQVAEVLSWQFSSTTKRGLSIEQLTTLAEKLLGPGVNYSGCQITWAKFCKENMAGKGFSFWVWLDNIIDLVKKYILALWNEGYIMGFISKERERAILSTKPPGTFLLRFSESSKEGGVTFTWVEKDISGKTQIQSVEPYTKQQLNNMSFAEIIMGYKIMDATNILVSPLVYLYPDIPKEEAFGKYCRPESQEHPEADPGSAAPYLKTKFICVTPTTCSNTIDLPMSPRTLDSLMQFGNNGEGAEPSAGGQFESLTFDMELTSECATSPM

stoichiometry N: 1
B1: C16 peptide (derived from the STAT3-binding sites of SHF) (peptide, UniProt Q7M4L6 388-421, looked up)
peptide: PFSSVPEIVHHYASRKLPIKGAEHMSLLYPVAIR
modifications: palmitic acid at the N-terminus; amidated C-terminus
notes: '3× His tags' is not explained further (three histidines or three His tags); source: synthetic peptide (Genscript; solid-phase Fmoc synthesis, RP-HPLC, purity above 95%); not shown: 3× His tags, C-terminal, kept

— PMC9475553, “SHF Acts as a Novel Tumor Suppressor in Glioblastoma Multiforme by Disrupting STAT3 Dimerization” (Advanced Science, 2022)
